Holding throughout (experiment): purified protein
Holding throughout (settings): 40°C, pH 5.6, 50 mM sodium acetate

Substrate in data set [1]: O=[N+]([O-])c1ccc(O[C@@H]2O[C@H](CO)[C@@H](O)[C@H](O)[C@H]2O)cc1
Substrate in data set [2]: O=[N+]([O-])c1ccc(O[C@@H]2O[C@H](CO)[C@@H](O[C@@H]3O[C@H](CO)[C@@H](O)[C@H](O)[C@H]3O)[C@H](O)[C@H]2O)cc1
The class given is biochemical, uncultured bacterium SRF2.

Substrate in data set [3]: O=[N+]([O-])c1ccc(O[C@@H]2O[C@H](CO)[C@@H](O[C@@H]3O[C@H](CO)[C@@H](O)[C@H](O)[C@H]3O)[C@H](O)[C@H]2O)cc1
It is filed as biochemical, uncultured bacterium LAB25.

Substrate in data set [4]: O=[N+]([O-])c1ccc(O[C@@H]2O[C@H](CO)[C@@H](O[C@@H]3O[C@H](CO)[C@@H](O)[C@H](O)[C@H]3O)[C@H](O)[C@H]2O)cc1
The class given is biochemical, uncultured bacterium LAB20.

B1: SRF2g18 (uncultured bacterium SRF2) (protein)
chain: MRKSIHQISLVILAVVAMCGYSLRMKAQQLKAENIDEVVKAMTLEEKCHMVLGRGMHFNDEAKFPGTAGSTFSIARLGVPETYCADSQQGLRMNATRAWDHNDYYPTDFVASMTLASTWDREAAFKVGQGIGNEVREFGLDWILSPAMNLIRNPLCGRNHEYYSEDPYLSGTIAAGYVNGVQSEGTAACPKHFVANNQETNRNNNVSQVSQRALREIYLKAFEIMVKESNPWTIMTSYNKLNGPYAVQNHDLLTTIVRNEWGWKGMYVSDWNAGDDAVAAMLAGNDMLQPGQDKQYQAILEAAQSGKLPMEVIDANVKRILEYVVKTHNFKGYKYNNEPDLKAHAKVVREVGADGIVLLKNSGVLPLVGKRVALFGCTSYDWISGGSGFGGTSVGHYTVSLIEGMRSVGYEIYKPLIAAYTQHIAAEEKRLFPNGRPAFSLMPPARADEKQFTADELNAAIEGSDVAIISLGRKSGEAADRSESDFYLKDGEAQLIKAVSDAYHAKGKQVVVLLDICSPIDVASWQNQVDALVCTWQGGQESGFSVADVLSGKVNPSGKLPMTFQIKYGDAYADKNFPANVDDKTLGAMFMWGYDKDNTPKERQLQANIDFTNYEEDIYVGYRYFDSFSKPVAYPFGFGLSYTTFAYENLSVSETDGVFTVKVDVKNTGNKAGRNVVELFVAAPNSKQLNKPEKELRNYAKTSLLKPGQTETVIMLVKTEDLASFNEKASAWKTDAGVYTFMICSSANQIEVQTSAKVKAWTKKVNNVMKPKLKLNLLKR
notes: gene 2343 bp (780 residues calculated), full ORF from ATG with native signal region in pET-41 Ek/LIC, E. coli BL21(DE3), Ni-NTA, tags removed by enterokinase
A word on the Km: it is the concentration of substrate that gives half-maximal velocity. One may read the kcat as the maximal rate divided by the concentration of active sites. As a reminder, the kcat/Km is the second-order rate constant that governs catalysis at low substrate concentration. On to B1, for which, in the data set “purified protein [1]”, the Km is 1730 ± 4 µM, the kcat came to 0.27 s⁻¹ and the kcat/Km came to 159 M⁻¹ s⁻¹. Also, in the data set “purified protein [2]”, the Km was 480 ± 72 µM, the kcat amounted to 0.11 ± 0.22 s⁻¹ and the kcat/Km is 232 M⁻¹ s⁻¹.

B2: LAB25g2 (uncultured bacterium LAB25) (protein)
chain: MKKLLTICFVATTFGMTMNAQPKLSADNIDEVLKAMTLEEKAKLLVGGANNFFSANAVVGGEATLVAGAAGTTPEIARLGIPATVLTDGPAGVRINPTRRGTDQTFYATAFPIGSCLASTWNTELVGQVGQAIGNETKEYRCDVILGPGMNLHRNPLCGRNFEYYSEDPFLTGKIAAAYINGVQKEDVGVSAKHFAVNSQETDRTSVDERLSQRAAREIYLRGFEIAVRESNPWTIMASYNIINGTHAMGNRDLLTSILRDDWGYKGIVMTDWIGIRQGLTTISEVQAGNDLMEPGQPAQVQEIIDGVKNGKLAIADVDRNVRRMLEYIVKTPSFRKYPASNKPDFTAHAAITRQSANEGIVLLKNNGTLPWKNIKSVALFGENSYDFLSGGTGSGCVHPPYVVDMLEGLKNAGIKSSETLTDIYRKYIAYARVKFQAERHPAKWFQTEAMGQQKYPEISLSPIAVEKEVRGADAAIITIGRQAGEGIDRDIETEFNLIPEERQLIFDVCQAFHAAGKPVVVIINSGSVIETASWSGYPDAILCAWQPGMEGGNSIADLLTGKVNPSGKLTMTWPIAATDHASTKNFPGALDDYSLMQMLGNGQPIPGHAYTNHEEDIYVGYRFFDTFKRDVAYPFGYGLSYTTFEYSKPVVKAKGQTVEVSITVKNSGSVSGKEVAQVYVAAPKGRLEKPAQELKAFAKTRELQPGESQTLTMTIPVRNLASFDEANSQWLTEAGTYTFRIGANSRDIRCTAEAKLAEYTEQTSNALAPKQKLNLLKQ
notes: gene 2340 bp (779 residues calculated), full ORF from ATG with native signal region in pET-41 Ek/LIC, E. coli BL21(DE3), Ni-NTA, tags removed by enterokinase
Take B2: in “purified protein [3]”, the Km was 390 ± 30 µM, the catalytic constant (kcat) was found to be 0.17 ± 0.36 s⁻¹ and the kcat/Km was 438 M⁻¹ s⁻¹. In “purified protein [1]”, the Km stood at 450 ± 60 µM, the catalytic constant (kcat) was found to be 0.41 s⁻¹ and the kcat/Km is 920 M⁻¹ s⁻¹.

B3: SRF2g14 (uncultured bacterium SRF2) (protein)
chain: MKKTLFFAFGMATLMMGCTSADKVTKNTLNQEEVMNRLSLEDKAHFVIGVGMAGFSGDDAVIGATKNLVPGAAGTTYPLDSLGIPAVVLADGPAGLRIDATREGDSATYYCTHFPIGTLLASTWNQKLVEEVGQAIGEEVKEYGADVLLAPALNIMRNPLCGRNFEYYSEDPVVAGKTASAYITGVQKNDVGTSIKHFAANNQETNRMNTDAHISQRALREIYLKGFEIAIKESKPWTVMTSYNYINGVYTSESKDLVQTILRDEWGYEGTVMTDWFGGKDGAKQMWAGNDMLQPGKAEQFDSIVAGVKSGKLDEADLDRNIQRILNLVEKSPRFQGYQYSNKPDLKAHAAVTRQSAAEGMVLMKNNEVLPLKENVKNVALYGCTSYDFIAGGTGSGNVNHAYVVSLLDGLKNGGYNVSDELKSAYEKYIADCKEARKKEIEEMAKKDKQAAMLARFMPGTLPAEKQFSSEELAKQADASDLAVITIGRISGEFLDRKAADFNLNDSEMKLIQQVCEVYHKVGKQVVVLLNIGGVIETASWKELPDAILCAWQAGQEGGNSVVDVLSGKQSPSGKFTMTWPVKFTDAYSSKNFPIDEDPKIDMMNQGQKGNVKNVDYADYEEDIYVGYRYFDSFDVPVSYPFGFGLSYTTFEYSDAKISQKNDIYDVTVTVKNTGKFEGKEVVELYISAPDNKAANKPSKELKAFAKTRSLKPGESETLTLSVTAPELASFDEAASAWVVAEGEYQFLVGASSQDIKATLTANAKSFQIKVNDVMKPQVQMNLLKR
notes: gene 2361 bp (786 residues calculated), full ORF from ATG with native signal region in pET-41 Ek/LIC, E. coli BL21(DE3), Ni-NTA, tags removed by enterokinase
B3: in “purified protein [1]”, the Km worked out at 34 ± 3 µM, the turnover number (kcat) turned out to be 0.37 s⁻¹ and the kcat/Km is 10800 M⁻¹ s⁻¹. Besides, in “purified protein [2]”, the Km is 480 ± 54 µM, the kcat was 0.19 ± 0.36 s⁻¹ and the specificity constant (kcat/Km) was 416 M⁻¹ s⁻¹.

B4: LAB20g4 (uncultured bacterium LAB20) (protein)
chain: MKKIMLLSATVLALAGCKGDPQLGKDSVDKVLKAMTLEEKVHFVIGTGMAGFGGESAVVGATKNIVPGAAGTTYPIERLGIPSIVLADGPAGLRIDPTREGDENTYYCTHFPIGTLLASTWNQELVESVGKAMGEEVHEYGADVYLAPALNIHRHPLNGRNFEYYSEDPVVAGKTAAAYVRGVQSNDVGTSIKHFAYNNQETNRTGNNAVISPRAQREIYLKGFEITVKESDPWTVMSSYNKINGTYTSQSRDLITTVLRDEWGFKGLVMTDWFGGDNGAEQIAAGNDMLQPGTDLQYQQIMDAIKDGSLSEDELNICVRRCLELVARSPKAKGYAYSNKPDLKAHAAVTRQSALEGMVLLENNGVLPLKDVKNVAVFGCTSFDFIAGGTGSGNVNRAYTVSLLDGLKNAGFNVDESNKEATLKHIADEDAAFKASLTDQLSAFYPTPRPSELVPSAAELAASARANDVAIITFGRNSGEFFDRTSADFSLSAKEKELLAKVTAAFHAKGKKVVVVLNVGGVIETASWKSVPDAILLAWQAGQEGGNSVTDILTGAKSPSGKLPMTFPVNLMDHASSANFPIDSDTGVYFTNRREDVGQKDVDVTKYEEGIYVGYRWFDKQNLPVSYPFGYGLSYTTFEYSAPAVANDGKTVTAKVTVKNTGSVAGKEAVQLYVSAPAGTLDKPVKELKAYGKTKELAPGESQELTLTFPTSELASFDEEASAWKVDAGTYTFQFGASSRDVRCTATAEAAASETPANRVLLMK
notes: gene 2295 bp (764 residues calculated), full ORF from ATG with native signal region in pET-41 Ek/LIC, E. coli BL21(DE3), Ni-NTA, tags removed by enterokinase
For the protein B4, in the data set “purified protein [1]”, the Km stood at 30 ± 3 µM, the kcat was determined as 0.88 s⁻¹ and the kcat/Km turned out to be 29500 M⁻¹ s⁻¹. Moreover, in “purified protein [4]”, the Km came to 1470 ± 130 µM, the kcat came to 0.12 ± 0.2 s⁻¹ and the kcat/Km came to 82.7 M⁻¹ s⁻¹.

The values above are taken from paper PMC3477023, “Microbial β-glucosidases from cow rumen metagenome enhance the saccharification of lignocellulose in combination with commercial cellulase cocktail” (Biotechnology for Biofuels, 2012).
